From PMC9482650, “Quantitative fragmentomics allow affinity mapping of interactomes” (Nature Communications, 2022)

Tests used:
Assay in all cases: holdup assay
Parameters in all cases: key: below the threshold = too weak to quantify, mostly under pKd 3.1 to 4
Conditions in all cases: plain residues with an end cap or a label only (N-terminal biotin on a linker: ttds)
APBA1_2, Q02410 = biological target: T1, APBA1_2, Q02410
T1 sequence (Q02410 742-832, limits assumed, looked up): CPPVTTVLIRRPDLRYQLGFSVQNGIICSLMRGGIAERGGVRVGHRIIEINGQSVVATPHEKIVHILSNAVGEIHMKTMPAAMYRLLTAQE

DFNB31_3, Q9P202 = biological target: T2, DFNB31_3, Q9P202
T2 sequence (Q9P202 811-907, limits assumed, looked up): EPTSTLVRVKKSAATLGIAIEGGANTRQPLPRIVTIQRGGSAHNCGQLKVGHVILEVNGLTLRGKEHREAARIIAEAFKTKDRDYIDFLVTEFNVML

DLG1_1, Q12959 = biological target: DLG1_1, Q12959
DLG2_2, Q15700 = biological target: DLG2_2, Q15700
Chain of DLG2_2, Q15700 (Q15700 189-283): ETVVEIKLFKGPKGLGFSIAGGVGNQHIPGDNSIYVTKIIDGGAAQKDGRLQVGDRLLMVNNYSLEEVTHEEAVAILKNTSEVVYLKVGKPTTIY

DLG3_1, Q92796 = biological target: T3, DLG3_1, Q92796
T3 sequence (Q92796 125-227, limits assumed, looked up): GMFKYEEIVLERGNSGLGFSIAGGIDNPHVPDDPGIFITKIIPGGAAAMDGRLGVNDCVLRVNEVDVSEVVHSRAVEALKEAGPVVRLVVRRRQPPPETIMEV

GOPC, Q9HD26 = biological target: GOPC, Q9HD26
GRIP1_2, Q9Y3R0 = biological target: T4, GRIP1_2, Q9Y3R0
T4 sequence (Q9Y3R0 145-248, limits assumed, looked up): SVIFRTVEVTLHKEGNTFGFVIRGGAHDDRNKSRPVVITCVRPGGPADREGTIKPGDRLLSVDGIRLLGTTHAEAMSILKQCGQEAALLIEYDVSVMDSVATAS

GRIP1_3, Q9Y3R0 = biological target: T5, GRIP1_3, Q9Y3R0
T5 sequence (Q9Y3R0 247-346, limits assumed, looked up): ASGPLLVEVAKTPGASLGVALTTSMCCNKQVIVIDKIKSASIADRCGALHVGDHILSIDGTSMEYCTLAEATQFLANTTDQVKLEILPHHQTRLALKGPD

GRIP1_5, Q9Y3R0 = biological target: T6, GRIP1_5, Q9Y3R0
T6 sequence (Q9Y3R0 568-668, limits assumed, looked up): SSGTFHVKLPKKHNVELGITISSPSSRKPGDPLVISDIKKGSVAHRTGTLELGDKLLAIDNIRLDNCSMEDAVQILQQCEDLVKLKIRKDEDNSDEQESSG

HTRA2, O43464 = biological target: HTRA2, O43464
Chain of HTRA2, O43464 (O43464 355-458): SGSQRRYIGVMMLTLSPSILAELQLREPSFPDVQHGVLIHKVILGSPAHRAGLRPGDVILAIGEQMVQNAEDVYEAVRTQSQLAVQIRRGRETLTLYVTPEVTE

IL16_4, Q14005 = biological target: IL16_4, Q14005
Chain of IL16_4, Q14005 (Q14005 1229-1329): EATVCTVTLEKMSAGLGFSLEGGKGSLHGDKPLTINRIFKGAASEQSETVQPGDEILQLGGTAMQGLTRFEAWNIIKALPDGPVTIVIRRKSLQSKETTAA

Inadl_1, Q8NI35 = biological target: Inadl_1, Q8NI35
Chain of Inadl_1, Q8NI35 (Q8NI35 113-229): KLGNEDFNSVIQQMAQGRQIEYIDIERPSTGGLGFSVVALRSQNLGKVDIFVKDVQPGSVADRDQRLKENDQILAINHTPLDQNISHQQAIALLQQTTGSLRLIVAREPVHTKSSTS

Inadl_4, Q8NI35 = biological target: Inadl_4, Q8NI35
Chain of Inadl_4, Q8NI35 (Q8NI35 547-651): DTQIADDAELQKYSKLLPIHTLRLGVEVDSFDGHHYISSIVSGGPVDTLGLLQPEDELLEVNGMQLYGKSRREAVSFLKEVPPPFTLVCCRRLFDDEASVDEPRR

Inadl_8, Q8NI35 = biological target: Inadl_8, Q8NI35
Chain of Inadl_8, Q8NI35 (Q8NI35 1425-1530): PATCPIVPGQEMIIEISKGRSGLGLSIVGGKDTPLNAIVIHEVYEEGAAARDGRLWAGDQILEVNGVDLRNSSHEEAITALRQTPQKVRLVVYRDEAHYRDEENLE

LIN7A, O14910 = biological target: T7, LIN7A, O14910
T7 sequence (O14910 103-200, limits assumed, looked up): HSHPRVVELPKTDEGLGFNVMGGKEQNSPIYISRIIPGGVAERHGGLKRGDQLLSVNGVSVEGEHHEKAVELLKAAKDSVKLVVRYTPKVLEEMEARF

LNX1_2, Q8TBB1 = biological target: LNX1_2, Q8TBB1
Chain of LNX1_2, Q8TBB1 (Q8TBB1 371-470): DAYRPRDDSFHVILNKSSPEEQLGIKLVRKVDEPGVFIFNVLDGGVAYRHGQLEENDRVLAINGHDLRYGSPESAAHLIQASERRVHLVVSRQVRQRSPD

MAGI2_6, Q86UL8 = biological target: MAGI2_6, Q86UL8
Chain of MAGI2_6, Q86UL8 (Q86UL8 1141-1229): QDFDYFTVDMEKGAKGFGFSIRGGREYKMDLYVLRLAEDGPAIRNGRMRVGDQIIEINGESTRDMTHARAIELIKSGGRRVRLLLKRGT

MPP6, Q9NZW5 = biological target: T8, MPP6, Q9NZW5
T8 sequence (Q9NZW5 125-219, limits assumed, looked up): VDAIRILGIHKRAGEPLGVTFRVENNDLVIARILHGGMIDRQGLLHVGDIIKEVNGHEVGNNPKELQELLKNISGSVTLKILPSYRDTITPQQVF

NHERF3_3, Q5T2W1 = biological target: T9, NHERF3_3, Q5T2W1
T9 sequence (Q5T2W1 238-333, limits assumed, looked up): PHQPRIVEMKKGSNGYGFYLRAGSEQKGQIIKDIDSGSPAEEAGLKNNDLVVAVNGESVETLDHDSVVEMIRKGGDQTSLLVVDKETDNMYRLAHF

NHERF3_4, Q5T2W1 = biological target: T10, NHERF3_4, Q5T2W1
T10 sequence (Q5T2W1 373-468, limits assumed, looked up): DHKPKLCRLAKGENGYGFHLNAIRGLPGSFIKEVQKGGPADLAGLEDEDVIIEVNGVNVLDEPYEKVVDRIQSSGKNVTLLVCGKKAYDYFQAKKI

PARD3_3, Q8TEW0 = biological target: PARD3_3, Q8TEW0
Chain of PARD3_3, Q8TEW0 (Q8TEW0 582-685): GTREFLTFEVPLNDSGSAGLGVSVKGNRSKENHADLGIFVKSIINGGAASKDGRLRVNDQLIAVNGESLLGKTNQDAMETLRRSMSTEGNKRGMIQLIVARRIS

PDLIM1, O00151 = biological target: PDLIM1, O00151
Chain of PDLIM1, O00151 (O00151 1-87): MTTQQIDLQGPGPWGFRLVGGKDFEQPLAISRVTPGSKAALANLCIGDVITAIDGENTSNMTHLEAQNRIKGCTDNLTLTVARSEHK

PDZRN3_1, Q9UPQ7 = biological target: T11, PDZRN3_1, Q9UPQ7
T11 sequence (Q9UPQ7 244-349, limits assumed, looked up): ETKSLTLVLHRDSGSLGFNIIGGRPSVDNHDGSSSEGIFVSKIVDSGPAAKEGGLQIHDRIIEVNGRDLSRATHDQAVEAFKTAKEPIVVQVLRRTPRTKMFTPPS

PDZRN4_1, Q6ZMN7 = biological target: PDZRN4_1, Q6ZMN7
Chain of PDZRN4_1, Q6ZMN7 (Q6ZMN7 213-318): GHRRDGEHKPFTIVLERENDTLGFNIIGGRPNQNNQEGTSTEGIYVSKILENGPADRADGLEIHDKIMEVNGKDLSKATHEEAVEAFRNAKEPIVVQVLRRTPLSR

SCRIB_2, Q14160 = biological target: SCRIB_2, Q14160
Chain of SCRIB_2, Q14160 (Q14160 857-960): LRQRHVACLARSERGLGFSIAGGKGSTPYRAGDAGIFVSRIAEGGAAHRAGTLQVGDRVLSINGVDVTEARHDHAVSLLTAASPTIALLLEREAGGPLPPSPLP

SNTA1, Q13424 = biological target: T12, SNTA1, Q13424
T12 sequence (Q13424 82-180, limits assumed, looked up): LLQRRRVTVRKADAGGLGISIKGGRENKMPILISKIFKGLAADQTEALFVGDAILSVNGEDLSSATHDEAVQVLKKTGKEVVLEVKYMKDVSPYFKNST

pKd (APBA1_2, Q02410): 4.03
pKd (DFNB31_3, Q9P202): below the threshold
pKd (DLG1_1, Q12959): 4.46
pKd (DLG2_2, Q15700): 4.15
pKd (DLG3_1, Q92796): 3.84
pKd (GOPC, Q9HD26): 4.52
pKd (GRIP1_2, Q9Y3R0): below the threshold
pKd (GRIP1_3, Q9Y3R0): below the threshold
pKd (GRIP1_5, Q9Y3R0): below the threshold
pKd (HTRA2, O43464): 3.68
pKd (IL16_4, Q14005): below the threshold
pKd (Inadl_1, Q8NI35): 3.53
pKd (Inadl_4, Q8NI35): below the threshold
pKd (Inadl_8, Q8NI35): below the threshold
pKd (LIN7A, O14910): 3.66
pKd (LNX1_2, Q8TBB1): below the threshold
pKd (MAGI2_6, Q86UL8): 4.53
pKd (MPP6, Q9NZW5): below the threshold
pKd (NHERF3_3, Q5T2W1): 3.61
pKd (NHERF3_4, Q5T2W1): 4.78
pKd (PARD3_3, Q8TEW0): 4.31
pKd (PDLIM1, O00151): 3.85
pKd (PDZRN3_1, Q9UPQ7): 5.46
pKd (PDZRN4_1, Q6ZMN7): 5.42
pKd (SCRIB_2, Q14160): 4.92
pKd (SNTA1, Q13424): 4.75
Binder: STLTIFETAL [ABCC4, O15439]
